Test results published in patent publication US20240124917, “COMPOSITIONS AND METHODS FOR NUCLEIC ACID DETECTION BY LATERAL FLOW ASSAYS” (King Abdullah University of Science and Technology, published 2024).

B1: pstv-cnt-RB-ssDNA (ssDNA)
DNA: CAGATCAATTCTCTTAGGTTTACCCGCCAATATATCCTGTCAAACACTGATAGTTTTCACAGTAGGGTG

Key:
[1] = target: T1, dCas9-dVirD2 fusion (dead Cas9, dead VirD2) (Streptococcus pyogenes / Agrobacterium …, UniProt Q99ZW2 SEQ:46-1413+1453-1899); assay: EMSA; dead VirD2 does not bind RB probe
VirD2-dCas9 fusion [2] = target: T2, VirD2-dCas9 fusion (/ Streptococcus pyogenes, UniProt Q99ZW2 SEQ:46-492+510-1877); assay: EMSA; denaturing gel mobility shift; 10 mM MgCl2
dCas9-VirD2 fusion [3] = target: T3, dCas9-VirD2 fusion (Streptococcus pyogenes / Agrobacterium …, UniProt Q99ZW2 SEQ:46-1413+1453-1899); assay: EMSA; denaturing gel mobility shift; 10 mM MgCl2
[4] = target: T4, VirD2-Cas9 fusion (wild-type VirD2 to wild-type SpCas9) (/ Streptococcus pyogenes, UniProt P06668;Q99ZW2 P06668:1-424,Q99ZW2:1-1368); assay: EMSA; denaturing gel mobility shift, Coomassie; 250 nM each, 10 mM MgCl2; conditions: tags: VirD2-SpCas9 fusion, expressed in E. coli BL21(DE3)
[5] = target: T5, Cas9-VirD2 fusion (wild-type SpCas9 to wild-type VirD2) (Streptococcus pyogenes / Agrobacterium …, UniProt Q99ZW2;P06668 Q99ZW2:1-1368,P06668:1-424); assay: EMSA; different shift pattern; 250 nM each, 10 mM MgCl2; conditions: tags: SpCas9-VirD2 fusion, expressed in E. coli BL21(DE3)
[6] = target: T1, dCas9-dVirD2 fusion (dead Cas9, dead …); assay: negative control, dead VirD2; anti-biotin western; conditions: label: 3' biotin
[7] = target: T5, Cas9-VirD2 fusion (wild-type SpCas9 to …); assay: covalent binding, anti-biotin western; 10 mM MgCl2, 37 C; conditions: tags: SpCas9-VirD2 fusion, expressed in E. coli BL21(DE3); label: 3' biotin
VirD2-dCas9 fusion [8] = target: T2, VirD2-dCas9 fusion; assay: as above; conditions: label: 3' biotin
dCas9-VirD2 fusion [9] = target: T3, dCas9-VirD2 fusion; assay: as above; conditions: label: 3' biotin
[10] = target: T4, VirD2-Cas9 fusion (wild-type VirD2 to …); assay: as above; conditions: tags: VirD2-SpCas9 fusion, expressed in E. coli BL21(DE3); label: 3' biotin

Binder | binding result [1] | binding result (VirD2-dCas9 fusion [2]) | binding result (dCas9-VirD2 fusion [3]) | binding result [4] | binding result [5] | binding result [6] | binding result [7] | binding result (VirD2-dCas9 fusion [8]) | binding result (dCas9-VirD2 fusion [9]) | binding result [10]
B1 | no binding | binds | binds | binds | binds |  |  |  |  | 
GTTTACCCGCCAATATATCCTGTCATTTTTTTTTT (ssDNA) [virD2 reporter-B-L] |  |  |  |  |  | no binding | binds | binds | binds | binds
